The values below come from patent US8420051B2, “Muteins of hNGAL and related proteins with affinity for a given target” (Technische Universitaet Meunchen, priority 2008, dated 2013).

Like-named read-outs stand apart in the source and are kept apart here.

The target in data set [1] is selected hNGAL muteins from the library randomized at positions 33, 36, 41, 52, 54, 68, 70, 79, 81, 134, 136 and 138 (Homo sapiens, UniProt P80188). The experiment in a line: ELISA, hexachloronorbornene hapten. It is filed as binding. Conditions: preliminary, data not shown. From the text:
The hNGAL library obtained in Example 2 was used to generate muteins having affinity to a hexachloronorbonene hapten. In more detail, the hexachloronorbornene hapten used was hexachloronorbornene N—(CH2)5—COOH the synthesis of which was reported by Hilvert et al., J. Am. Chem. Soc. 1989, Vol. 111, 9261-9262 (compound 2 in FIG. 1 of Hilvert et al) which represents a transition state analogue for the [4+2] Diels-Alder reaction (see also, Xu et al., Science, 1999, Vol. 286, 2345-2348). Generation of the hNGAL muteins were carried out essentially in accordance with the experimental procedure as described in Example 3 above and muteins with binding activity to the to hexachloronorbornene hapten were isolated and characterized by ELISA.
Background: ELISA stands for enzyme-linked immunosorbent assay.

For data set [2], the target named is T1, hNGAL mutein Tb7.N9, SEQ ID NO: 6 (Tb7 + A79L/I80T) (Homo sapiens, UniProt P80188, C107S/I100T/I61A/K154S/L56R/L90R/Q48H/R101M/S88A/T165A/T74Q/V53Q/W99L/Y158L/Y72T).
T1 construct: the mature hNGAL protein and the C-terminal Strep-tag II; OmpA signal peptide (N, cleaved yes); made in house; host or cells: E. coli BL21 or TG1-F- (periplasm), plasmid pNGAL15
T1 sequence (P80188 21-198 Q48H/V53Q/L56R/I61A/Y72T/T74Q/S88A/L90R/W99L/I100T/R101M/C107S/K154S/Y158L/T165A): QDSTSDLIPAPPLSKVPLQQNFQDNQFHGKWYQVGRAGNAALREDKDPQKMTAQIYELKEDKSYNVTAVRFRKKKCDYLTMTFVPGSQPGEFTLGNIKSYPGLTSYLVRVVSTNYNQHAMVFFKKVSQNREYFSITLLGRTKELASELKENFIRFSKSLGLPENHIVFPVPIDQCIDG
Briefly: SPR (Biacore), immobilized Me•DTPA-RNase. To be noted: 5 μl/min. It is filed as binding. The protocol: (§1) Real time analysis of hNGAL variants was performed on a BIAcore X system (BIAcore, Uppsala, Sweden) using PBS/t (PBS containing 0.005% (v/v) Tween 20) as running buffer. 5 to 27 μg/ml solutions of the Me•DTPA-RNase conjugate in 10 mM Na-acetate, pH 5.0 were immobilized on a CM5 chip using standard amine coupling chemistry, resulting in a ligand density of 240 to 1800 resonance units (RU). The purified hNGAL variant was applied at a flow rate of 5 or 25 μl/min at concentrations of 0.5 up to 500 nM. The sensorgrams were corrected by subtraction of the corresponding signals measured for the control channel, which had been activated and blocked with ethanolamine. Kinetic data evaluation was performed by global fitting with BIAevaluation software V 3.0 (Karlsson et al. (1991) J. Immunol. Methods 145, 229-240). Alternatively, the plateau values at the end of the association phase (after 200 s) were plotted against the applied protein concentration and fitted as in the ELISA (see above) to determine the equilibrium dissociation constants (KO.
(§2) Finally, the hNGAL variants were analyzed by SPR using a Biacore CM-5 chip with the covalently attached Y-DTPA-RNaseA conjugate and applying the purified recombinant proteins (Table 3). […] The improved KD values result primarily from slower ligand dissociation.

Data set [3] addresses T2, human neutrophil gelatinase-associated lipocalin (hNGAL, lipocalin 2, P80188), wild type, SEQ ID NO: 1 (Homo sapiens, UniProt P80188).
T2 construct: the mature hNGAL protein and the C-terminal Strep-tag II; OmpA signal peptide (N, cleaved yes); made in house; host or cells: E. coli BL21 or TG1-F- (periplasm), plasmid pNGAL14
Briefly: SPR (Biacore), immobilized Me•DTPA-RNase. It is filed as binding. To be noted: immobilized Y-DTPA-RNaseA. The protocol:
as §1, §2

The target of data set [4] is T3, hNGAL mutein Tb7.N9.N34, SEQ ID NO: 7 (Tb7.N9 + S127Q) (Homo sapiens, UniProt P80188, C107S/I100T/I61A/K154S/L56R/L90R/Q48H/R101M/S147Q/S88A/T165A/T74Q/V53Q/W99L/Y158L/Y72T).
T3 construct: the mature hNGAL protein and the C-terminal Strep-tag II; Strep-tag II (C); OmpA signal peptide (N, cleaved yes); made in house; host or cells: E. coli BL21 or TG1-F- (periplasm), plasmid pNGAL15
T3 sequence (P80188 21-198 with the stated changes): as the sequence (P80188 21-198 Q48H/V53Q/L56R/I61A/Y72T/T74Q/S88A/L90R/W99L/I100T/R101M/C107S/K154S/Y158L/T165A) above, with S127Q counted along it
The experiment in a line: SPR (Biacore), immobilized Me•DTPA-RNase. Conditions: 5 μl/min. It is filed as binding. The protocol:
as §1, §2

Data set [5] has as its target T4, hNGAL mutein Tb7, SEQ ID NO: 2 (Gln28His, Val33Gln, Leu36Arg, Ile41Ala, Tyr52Thr, Thr54Gln, Ser68Ala, Leu70Arg, Trp79Ala, Arg81Met, Cys87Ser, Lys134Ser, Tyr138L (Homo sapiens, UniProt P80188, C107S/I61A/K154S/L56R/L90R/Q48H/R101M/S88A/T165A/T74Q/V53Q/W99A/Y158L/Y72T)).
T4 construct: the mature hNGAL protein and the C-terminal Strep-tag II; OmpA signal peptide (N, cleaved yes); made in house; host or cells: E. coli BL21 or TG1-F- (periplasm), plasmid pNGAL15
Briefly: SPR (Biacore), immobilized Me•DTPA-RNase. It counts as binding. To be noted: 5 μl/min; for Kd: from the kinetic analysis, read-out: KD. The protocol: as §1, §2
(In general: Surface plasmon resonance follows binding to a sensor surface in real time, without labels.)

Data set [6] concerns the target T5, hNGAL mutein Yd5, SEQ ID NO: 9 (Tb7.N9.N34 + D77E/T136S) (Homo sapiens, UniProt P80188, C107S/D97E/I100T/I61A/K154S/L56R/L90R/Q48H/R101M/S147Q/S88A/T156S/T165A/T74Q/V53Q/W99L/Y158L/Y72T).
T5 construct: the mature hNGAL protein and the C-terminal Strep-tag II; OmpA signal peptide (N, cleaved yes); made in house; host or cells: E. coli BL21 or TG1-F- (periplasm), plasmid pNGAL15
Briefly: SPR (Biacore), immobilized Me•DTPA-RNase. It is filed as binding. To be noted: for Kd: from the kinetic analysis, read-out: KD. The protocol: as §1, §2

Data set [7] deals with T6, hNGAL mutein Ya6, SEQ ID NO: 8 (Tb7.N9.N34 with Thr136Ser) (Homo sapiens, UniProt P80188, C107S/I100T/I61A/K154S/L56R/L90R/Q48H/R101M/S147Q/S88A/T156S/T165A/T74Q/V53Q/W99L/Y158L/Y72T).
T6 construct: the mature hNGAL protein and the C-terminal Strep-tag II; Strep-tag II (C); OmpA signal peptide (N, cleaved yes); made in house; host or cells: E. coli BL21 or TG1-F- (periplasm), plasmid pNGAL15
T6 sequence (P80188 21-198 with the stated changes): as the sequence (P80188 21-198 Q48H/V53Q/L56R/I61A/Y72T/T74Q/S88A/L90R/W99L/I100T/R101M/C107S/K154S/Y158L/T165A) above, with S127Q, T136S counted along it
Briefly: SPR (Biacore), immobilized Me•DTPA-RNase. Conditions: 5 μl/min; for Kd: from the kinetic analysis, read-out: KD. It is filed as binding. The protocol: as §1, §2

Data set [8] has as its system hNGAL mutein Yd5, SEQ ID NO: 9 (Tb7.N9.N34 + D77E/T136S). Briefly: SPR (Biacore), immobilized Me•DTPA-RNase. It is filed as binding, human. To be noted: vs parental Tb7. The protocol: as §1, §2
For data set [9], the system named is hNGAL mutein Ya6, SEQ ID NO: 8 (Tb7.N9.N34 with Thr136Ser). The experiment in a line: SPR (Biacore), immobilized Me•DTPA-RNase. It counts as binding, human. Conditions: vs parental Tb7. The protocol:
as §1, §2

For data set [10], the target named is T7, hNGAL mutein L1, SEQ ID NO: 28 (C26 + R43P/E44V/K46P/D47E/K50L/M51L) (Homo sapiens, UniProt P80188, C107S/D67E/D97E/E64V/I100T/I61A/I75T/K154S/K66P/K70L/K95M/L56R/L62P/L90R/M71L/P68L/Q48H/Q69L/R101M/R63P/S147Q/S88A/T156S/T165A/T74Q/V53Q/W99L/Y158L/Y72T).
T7 construct: the mature hNGAL protein and the C-terminal Strep-tag II; Strep-tag II (C); OmpA signal peptide (N, cleaved yes); made in house; host or cells: E. coli (periplasm)
T7 sequence (P80188 21-198 with the stated changes): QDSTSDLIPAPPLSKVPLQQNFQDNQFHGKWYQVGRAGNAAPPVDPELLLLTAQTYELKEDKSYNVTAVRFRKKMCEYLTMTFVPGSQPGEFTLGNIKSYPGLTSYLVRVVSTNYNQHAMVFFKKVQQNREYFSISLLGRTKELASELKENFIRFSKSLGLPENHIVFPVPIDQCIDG
Briefly: SPR (Biacore), immobilized Y-DTPA-RNaseA. It counts as binding. The protocol:
as §1
The new hNGAL variant L1 was analyzed by SPR as in Example 8 using a Biacore CM-5 chip with the covalently attached Y-DTPA-RNaseA conjugate and applying the purified recombinant protein.

Data set [11] deals with T8, hNGAL mutein CL31, SEQ ID NO: 31 (L1 + V44M/N65D/G86S/S87P/S99N/L107F) (Homo sapiens, UniProt P80188, C107P/D67E/D97E/E64M/G106S/I100T/I61A/I75T/K154S/K66P/K70L/K95M/L127F/L56R/L62P/L90R/M71L/N85D/P68L/Q48H/Q69L/R101M/R63P/S119N/S147Q/S88A/T156S/T165A/T74Q/V53Q/W99L/Y158L/Y72T).
T8 construct: the mature hNGAL protein and the C-terminal Strep-tag II; Strep-tag II (C); OmpA signal peptide (N, cleaved yes); made in house; host or cells: E. coli (periplasm)
T8 sequence (P80188 21-198 with the stated changes): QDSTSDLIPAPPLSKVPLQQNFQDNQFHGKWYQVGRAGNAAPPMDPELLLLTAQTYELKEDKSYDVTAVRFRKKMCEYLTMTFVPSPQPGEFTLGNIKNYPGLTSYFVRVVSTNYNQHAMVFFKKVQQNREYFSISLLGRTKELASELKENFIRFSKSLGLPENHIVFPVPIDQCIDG
The experiment in a line: SPR (Biacore), immobilized Y•DTPA-RNase. It counts as binding. The protocol:
FIG. 2E depicts the kinetic real time analysis of hNGAL variant CL31 measured on a Biacore instrument at a flow rate of 25 μl/min. The Y•DTPA-RNase conjugate was coupled via amine chemistry to a CM5 sensor chip (ΔRU=300), and the purified hNGAL variant CL31 was applied at varying concentrations as indicated. The measured signal is shown as a gray line and the fitted curve as a black line in each case.
as §1

Data set [12] has as its target T9, hNGAL mutein C26, SEQ ID NO: 10 (Yd5 + L42P/P48L/Q49L/I55T (155T [sic])/K75M) (Homo sapiens, UniProt P80188, C107S/D97E/I100T/I61A/I75T/K154S/K95M/L56R/L62P/L90R/P68L/Q48H/Q69L/R101M/S147Q/S88A/T156S/T165A/T74Q/V53Q/W99L/Y158L/Y72T).
T9 construct: the mature hNGAL protein and the C-terminal Strep-tag II; OmpA signal peptide (N, cleaved yes); made in house; host or cells: E. coli BL21 or TG1-F- (periplasm), plasmid pNGAL15
Briefly: SPR (Biacore), immobilized Me•DTPA-RNase. It is filed as binding. The protocol: FIG. 2D depicts the kinetic real time analysis of hNGAL variant C26 measured on a Biacore instrument. The Y•DTPA-RNase conjugate was coupled via amine chemistry to a CM5 sensor chip (ΔRU=240) and the purified hNGAL variant C26 was applied at varying concentrations. The measured signal is shown as a grey line whereas the curve fit is depicted as a black line in each case.
as §1, §2

The mark [13] stands for this setting: from the kinetic analysis, read-out: KD.
Setting [14] is: read-out: affinity to the metal chelate ligand.

T9 sequence (P80188 21-198 with the stated changes): as the sequence (P80188 21-198 Q48H/V53Q/L56R/I61A/Y72T/T74Q/S88A/L90R/W99L/I100T/R101M/C107S/K154S/Y158L/T165A) above, with L42P, P48L, Q49L, I55T, K75M, D77E, S127Q, T136S counted along it
T5 sequence (P80188 21-198 with the stated changes): as the sequence (P80188 21-198 Q48H/V53Q/L56R/I61A/Y72T/T74Q/S88A/L90R/W99L/I100T/R101M/C107S/K154S/Y158L/T165A) above, with D77E, S127Q, T136S counted along it
T4 sequence (P80188 21-198 Q48H/V53Q/L56R/I61A/Y72T/T74Q/S88A/L90R/W99A/R101M/C107S/K154S/Y158L/T165A): as the sequence (P80188 21-198 Q48H/V53Q/L56R/I61A/Y72T/T74Q/S88A/L90R/W99L/I100T/R101M/C107S/K154S/Y158L/T165A) above, with L79A, T80I counted along it
Sequence of selected hNGAL muteins from the library randomized at positions 33, 36, 41, 52, 54, 68, 70, 79, 81, 134, 136 and 138 (P80188 21-198, stated change not applied): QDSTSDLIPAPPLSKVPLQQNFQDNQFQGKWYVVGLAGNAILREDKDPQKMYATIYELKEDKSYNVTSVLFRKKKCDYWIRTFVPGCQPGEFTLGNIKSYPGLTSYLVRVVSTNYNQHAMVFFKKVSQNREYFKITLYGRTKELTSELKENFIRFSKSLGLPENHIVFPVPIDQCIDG
T2 sequence (P80188 21-198, one chain of several): as the sequence (P80188 21-198, stated change not applied) above

For `O=C(O)CCCCCN1C(=O)C2C(C1=O)C1(Cl)C(Cl)=C(Cl)C2(Cl)C1(Cl)Cl` (stereo not shown) [hexachloronorbornene hapten, hexachloronorbornene N—(CH2)5—COOH], the KD result in [1] is recorded as “at least micromolar”.

B1: Y^3+•DTPA-RNase: p-SCN-Bn-CHX-A″-DTPA covalently coupled to bovine ribonuclease A (about 1:1), charged with Y^3+; ligand is the chelate group (conjugate, UniProt P61823 27-150, looked up)
Ribonuclease pancreatic: KETAAAKFERQHMDSSTSAASSSNYCNQMMKSRNLTKDRCKPVNTFVHESLADVQAVCSQKNVACKNGQTNCYQSYSTMSITDCRETGSSKYPNCAYKTTQANKHIIVACEGNPYVPVHFDASV
modifications: CHX-A''-DTPA chelate with Y3+
notes: p-SCN-Bn-CHX-A″-DTPA covalently coupled to bovine ribonuclease A (about 1:1), charged with Y^3+; ligand is the chelate group
In the case of B1, the koff (usually the first-order rate constant of dissociation) amounted to 0.023 s⁻¹ in data set [2]; 0.0208 s⁻¹ in data set [4]; 0.1 s⁻¹ in data set [5]; 0.00345 s⁻¹ in data set [6] (5 μl/min); 0.00553 s⁻¹ in data set [7]; 0.000704 s⁻¹ in data set [12] (5 μl/min). In addition, the kon – broadly, a measure of how fast the partners come together – in data set [2] came to 1.61e+06 M⁻¹ s⁻¹; in data set [4] it was 1.57e+06 M⁻¹ s⁻¹; in [5], 998000 M⁻¹ s⁻¹; in data set [6] (5 μl/min), 984000 M⁻¹ s⁻¹; in data set [7], 1.72e+06 M⁻¹ s⁻¹; in data set [12] (5 μl/min), 2.5e+06 M⁻¹ s⁻¹. Besides, the Kd in data set [2] (setting [13]) is 14.3 nM; in data set [4] (setting [13]), 13.2 nM; in [5] (listed as Y-DTPA-RNaseA), 75 to 100 nM; in [5], 100 nM; in data set [6] (5 μl/min, listed as Y-DTPA-RNaseA), roughly 3 nM; in data set [6] (5 μl/min), 3.5 nM. The Kd in data set [7] (listed as Y-DTPA-RNaseA) is roughly 3 nM; in [7], 3.2 nM; in data set [10] it was 0.713 nM; in data set [11] (setting [14]), 0.237 nM; in data set [12] (5 μl/min, from the kinetic analysis, read-out: KD), 0.282 nM; in [12] (setting [14]), 0.282 nM. In addition, the binding activity result in [3] was “did not exhibit any significant binding activity”. For the same molecule, in data set [6] (half life of dissociation, listed as Y-DTPA-RNaseA), the τ1/2 result is “ca. 200 s”. For the same molecule, the “affinity improvement over Tb7” value in [8] and in [9] was “approximately 30 -fold” in each case. Further, the association rate constant was 296000 M⁻¹ s⁻¹ in [10] and 446000 M⁻¹ s⁻¹ in data set [11]. Moreover, the dissociation rate constant in [10] is 0.000211 s⁻¹; in data set [11] it was 0.000106 s⁻¹. The “half life of dissociation” value in data set [11] was “ca. 1.8 h”.
